Experimental data as given in patent US20230383009A1 (CARIBOU BIOSCIENCES, published 2023).

B1: mouse monoclonal anti-ROR1 antibody, hybridoma clone 2H6 (antibody, V domains shown)
VH: VKLVESGGGLVKPGGSLKLSCAASGFTFSTYAMSWVRQTPEKRLEWVASISSGGNTYYPDSVKGRFTISRDNARHILYLQMSSLRSEDTAMYYCARDSYYFGNSVYYAMDYWGQGTSVTVSS
VL: DIKMTQSPSSMYASLGERVTITCKASQDINSYFSWFQQKPGKSPKTLIYRANRLVDGVPSRFSGSGSGQDYSLTISSLEYEDMGIYYCLQYDEFPYTFGGGTKLEIKR
notes: Hybridoma antibody, mouse IgG1 type; also called mouse anti-ROR1 antibody (IgG1 type); mouse anti-ROR1 monoclonal antibody
B2: anti-ROR1 scFv-mouse Fc fusion (scFv of clone 2H6) (Fc fusion)
scFv: VKLVESGGGLVKPGGSLKLSCAASGFTFSTYAMSWVRQTPEKRLEWVASISSGGNTYYPDSVKGRFTISRDNARHILYLQMSSLRSEDTAMYYCARDSYYFGNSVYYAMDYWGQGTSVTVSSGGGGSGGGGSGGGGSDIKMTQSPSSMYASLGERVTITCKASQDINSYFSWFQQKPGKSPKTLIYRANRLVDGVPSRFSGSGSGQDYSLTISSLEYEDMGIYYCLQYDEFPYTFGGGTKLEIKR
notes: Used as the primary antibody in the Western blot. scFv is VH-(G4S)3-VL; The mouse Fc part is not described; also called anti-ROR1 scFv (mouse clone 2H6); not shown: mouse Fc

Tests used:
[1] = molecular target: T1, extracellular ROR1 protein (human, UniProt Q01973 30-406); experiment: ELISA
T1 construct: extracellular domain
T1 sequence (Q01973 30-406): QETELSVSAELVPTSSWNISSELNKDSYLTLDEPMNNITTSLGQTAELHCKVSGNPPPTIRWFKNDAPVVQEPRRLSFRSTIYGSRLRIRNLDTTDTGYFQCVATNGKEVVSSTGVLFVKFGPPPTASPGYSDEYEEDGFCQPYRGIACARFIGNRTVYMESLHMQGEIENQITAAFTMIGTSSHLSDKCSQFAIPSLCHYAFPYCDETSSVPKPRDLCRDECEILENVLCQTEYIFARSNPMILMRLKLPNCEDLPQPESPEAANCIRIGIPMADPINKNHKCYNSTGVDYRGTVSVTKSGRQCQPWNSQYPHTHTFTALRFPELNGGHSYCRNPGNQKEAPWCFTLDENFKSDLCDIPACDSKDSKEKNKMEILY

[2] = molecular target: T2, ROR1 on human cancer cell lines (HepG2, MDA231, HT-29, SKOV-3) (human, UniProt Q01973 30-937); experiment: flow cytometry (FACS) on cancer cell lines
T2 construct: whole, on cells; Endogenous ROR1 of tumour cell lines, not transfected cells; also called ROR1-positive cells; ROR1-expressing cell line SKOV-3
T2 sequence (Q01973 30-937): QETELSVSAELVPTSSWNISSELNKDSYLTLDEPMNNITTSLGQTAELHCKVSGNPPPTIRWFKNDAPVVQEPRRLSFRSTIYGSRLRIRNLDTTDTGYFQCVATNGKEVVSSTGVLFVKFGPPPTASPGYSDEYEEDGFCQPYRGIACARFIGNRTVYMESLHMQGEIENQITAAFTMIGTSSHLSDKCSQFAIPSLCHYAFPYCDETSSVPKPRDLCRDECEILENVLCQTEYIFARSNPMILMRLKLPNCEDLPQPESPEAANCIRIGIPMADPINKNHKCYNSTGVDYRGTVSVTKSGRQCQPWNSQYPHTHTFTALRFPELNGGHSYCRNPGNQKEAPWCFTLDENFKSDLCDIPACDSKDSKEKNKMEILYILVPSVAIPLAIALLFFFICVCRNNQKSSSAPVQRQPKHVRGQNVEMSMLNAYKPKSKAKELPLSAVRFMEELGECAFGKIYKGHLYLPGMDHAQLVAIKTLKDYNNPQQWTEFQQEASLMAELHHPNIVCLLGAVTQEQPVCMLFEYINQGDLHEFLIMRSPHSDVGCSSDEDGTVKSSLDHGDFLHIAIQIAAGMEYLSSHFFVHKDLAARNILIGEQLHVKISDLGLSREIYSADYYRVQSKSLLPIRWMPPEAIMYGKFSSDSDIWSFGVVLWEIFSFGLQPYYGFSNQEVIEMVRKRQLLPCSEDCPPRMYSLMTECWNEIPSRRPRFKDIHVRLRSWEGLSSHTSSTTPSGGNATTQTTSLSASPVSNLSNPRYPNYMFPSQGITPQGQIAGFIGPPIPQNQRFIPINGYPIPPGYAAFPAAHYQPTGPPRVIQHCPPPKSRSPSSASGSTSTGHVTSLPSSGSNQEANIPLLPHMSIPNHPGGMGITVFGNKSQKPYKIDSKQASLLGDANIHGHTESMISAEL
Excerpt: Normal keratinocytes were used as a negative control (FIG. 4). (MFI: […] compared to the isotype).

[3] = molecular target: T3, ROR1 extracellular domain fused to human Fc (hFc) protein (human, UniProt Q01973 30-406); experiment: Western blot, anti-ROR1 scFv-mouse Fc fusion as primary antibody, anti-mouse IgG-HRP as secondary
T3 construct: extracellular domain; also called ROR1-human Fc fusion protein; human ROR1 antigen; not shown: human Fc (hFc)
T3 sequence (Q01973 30-406): as the sequence (Q01973 30-406) above
Excerpt: In this example, we generated a mouse monoclonal anti-ROR1 antibody using standard hybridoma technology. The mouse anti-ROR1 antibody (IgG1 type) detected extracellular ROR1 protein by ELISA (data not shown). We sequenced this hybridoma clone 2H6 and generated an scFv using VH and VL (see further in Example 2). […] The ROR1-human Fc fusion protein was detected with an antibody directed against the human Fc domain.

Row | Binder | binding result [1] | binding result [2] | binding result [3]
1 | B1 | binds | binds | 
2 | B2 |  |  | binds
